What was measured:
human PD-L1-Fc protein [1] = biological target: T1, human PD-L1-Fc protein (human, UniProt Q9NZQ7 19-239); experiment: ELISA, Fab on coated human PD-L1-Fc; ratio from extrapolating an OD of 0.3 at pH 6 versus pH 7.4
T1 construct: Bought from R&D Systems; also called immobilised PD-L1-Fc; not shown: Fc part of the bought fusion protein, not described

human PD-L1 on cells [2] = biological target: T2, human PD-L1 on cells (human, UniProt Q9NZQ7 19-290); experiment: flow cytometry on MDA-MB-231 cells, Krebs buffer, pH 6
T2 construct: Endogenous on MDA-MB-231 cells or transfected into HEK293FF cells (Sino Biological plasmid); the assay field says which; also called native PD-L1 on MDA-MB-231 cells; PD-L1 expressing MDA-MB-231 cells
Description: (§1) Anti-PD-L1 affinity matured Fabs were tested for their ability to bind to native PD-L1 in a cell line, (MDA-MB-231 cells) in a buffer resembling the tumor microenvironment (Krebs-lactate).

human PD-L1-Fc protein [3] = biological target: T1, human PD-L1-Fc protein; experiment: ELISA, purified Fab on coated human PD-L1-Fc, pH 6 (FIG. 4)
biotinylated human PD-L1 [4] = biological target: T3, biotinylated human PD-L1 (human, UniProt Q9NZQ7 19-239, limits assumed, biotinylated (sites not given)); experiment: competition ELISA, Fab with biotinylated PD-L1 on coated PD-1-Fc, pH 6
T3 construct: Bought from R&D Systems; also called biotinylated-PD-L1; human PD-L1 biotin

biotinylated human PD-L1 [5] = biological target: T3, biotinylated human PD-L1; experiment: competition ELISA, Fab with biotinylated PD-L1 on coated PD-1-Fc; ratio of IC50 values
human PD-L1 on cells [6] = biological target: T2, human PD-L1 on cells; experiment: flow cytometry on MDA-MB-231 cells, Krebs buffer, pH 6.5
Description: as §1

biotinylated human PD-L1 [7] = biological target: T3, biotinylated human PD-L1; experiment: competition ELISA, Fab with biotinylated PD-L1 on coated PD-1-Fc
human PD-L1-Fc protein [8] = biological target: T1, human PD-L1-Fc protein; experiment: BIAcore off rate, unpurified periplasmic extract Fab on PD-L1
biotinylated human PD-L1 [9] = biological target: T3, biotinylated human PD-L1; experiment: competition ELISA, Fab with biotinylated PD-L1 on coated PD-1-Fc, pH 6; remark: listed apart in the source
human PD-L1 on cells [10] = biological target: T2, human PD-L1 on cells; experiment: flow cytometry on MDA-MB-231 cells, Krebs buffer; ratio of EC50 values
Description: as §1

human PD-L1-Fc protein [11] = biological target: T1, human PD-L1-Fc protein; experiment: BIAcore off rate, unpurified periplasmic extract Fab on PD-L1, pH 7.4
human PD-L1 on cells [12] = biological target: T2, human PD-L1 on cells; experiment: flow cytometry on MDA-MB-231 cells, Krebs buffer, pH 7.4
Description: as §1

biotinylated human PD-L1 [13] = biological target: T3, biotinylated human PD-L1; experiment: competition ELISA, Fab with biotinylated PD-L1 on coated PD-1-Fc, pH 7.4
human PD-L1-Fc protein [14] = biological target: T1, human PD-L1-Fc protein; experiment: BIAcore off rate, unpurified periplasmic extract Fab on PD-L1, pH 6
human PD-L1-Fc protein [15] = biological target: T1, human PD-L1-Fc protein; experiment: ELISA, Fab on coated human PD-L1-Fc, pH 7.4
human PD-L1 on cells [16] = biological target: T2, human PD-L1 on cells; experiment: flow cytometry on MDA-MB-231 cells, Krebs-lactate buffer, pH 6 versus pH 7.4
Description: (§2) In order to mimic an acidic tumor environment milieu with tumor cells expressing PD-L1 (The metabolism of tumors in the body, Warburg et al. J Gen Physiol. 1927; 8:519-30) the following buffers were utilised: Krebs ringer bicarbonate buffer (KRB, Amsbio catalog number KRB-1000) with 1 mM lactic acid (Sigma catalog number 252476-50DG) for pH 7.4; KRB plus 15 mM lactic acid for pH 6.5 and KRB plus 20 mM lactic acid for pH 6.0). 3 fold dilutions (100 nM to 0.0005 nM; 0) of the Fabs or IgG were prepared in the respective pH buffers and incubated with 0.60E05 MDA-MB-231 cells for 60 minutes at 4° C. The cells were then washed 3× with the respective pH buffers, at 300 g for 3 min. The cells were then incubated with 50 μl of anti-human IgG (Fab specific)-FITC (Sigma, catalog number F5512-1ML) at 1:100 dilution in the respective pH buffers. Binding of the IgG or Fab to PD-L1 expressing cells was measured by FACS (Attune Nxt) and a total of 10.000 cells were acquired per sample.
as §1

biotinylated human PD-L1 [17] = biological target: T3, biotinylated human PD-L1; experiment: competition ELISA, Fab with biotinylated PD-L1 on coated PD-1-Fc, pH 6.5
human PD-L1-Fc protein [18] = biological target: T1, human PD-L1-Fc protein; experiment: ELISA, Fab on coated human PD-L1-Fc, pH 6
human PD-L1 on cells [19] = biological target: T2, human PD-L1 on cells; experiment: flow cytometry on MDA-MB-231 cells, Krebs buffer with lactate, pH printed as 6.6 (FIG. 3); pH printed as 6.6 (experiment described at pH 6.5); pH 6.6
Description: as §2

human PD-L1-Fc protein [20] = biological target: T1, human PD-L1-Fc protein; experiment: SPR BIAcore, mAb over immobilised PD-L1-Fc
Description: (§3) To assess the affinity of selected IgG formatted purified clones to human PD-L1 at pH6.0 and at pH7.4, human PD-L1-Fc protein was coated by amine coupling. Surface plasmon resonance (SPR) (BIAcore 3000, GE Healthcare) was used to determine the binding kinetics of selected IgG formatted purified clones to human PD-L1 at pH6.0 and at pH 7.4. Approximately 3000 RU of human PD-L1 Fc (R&D Systems) at 50 μg/ml in Acetate buffer pH 5.0 was immobilized onto a CM5 chip using the standard amine coupling procedure. QC of the PD-L1 immobilization was performed using an anti-PD-L1 commercial antibody (R&D systems cat. no. AF156) at 2.0 μg/ml. 1×HBS-EP pH 7.4 or HBS-EP pH 7.0 or HBS-EP […] citrate buffer pH 6.5 or HBS-EP […] citrate buffer pH 6.0, were utilized as running buffers during binding kinetic measurements. […] Fitting 1:1 binding with mass transfer was applied to the curves using the BIAevaluation software to calculate the kinetic constants of the antibody-antigen interactions including association rate (ka), dissociation rate (kd) and affinity (KD).

biotinylated human PD-L1 [21] = biological target: T3, biotinylated human PD-L1; experiment: competition ELISA, mAb with biotinylated PD-L1 on coated PD-1-Fc (FIG. 1A); PD-L1 binding to PD-1 (FIG. 1A)
human PD-L1-Fc protein [22] = biological target: T1, human PD-L1-Fc protein; experiment: SPR BIAcore, mAb over immobilised PD-L1-Fc, pH 6.0
biotinylated human PD-L1 [23] = biological target: T3, biotinylated human PD-L1; experiment: competition ELISA, mAb with biotinylated PD-L1 on coated B7-1-Fc (CD80) (FIG. 1B); PD-L1 binding to CD80 (FIG. 1B)
human PD-L1-Fc protein [24] = biological target: T1, human PD-L1-Fc protein; experiment: SPR BIAcore, mAb over immobilised PD-L1-Fc, pH 7.4
Description: as §3

human PD-L1-Fc protein [25] = biological target: T1, human PD-L1-Fc protein; experiment: SPR BIAcore, mAb over immobilised PD-L1-Fc, pH 7.0
Description: as §3

human PD-L1 on cells [26] = biological target: T2, human PD-L1 on cells; experiment: flow cytometry on MDA-MB-231 cells, Krebs buffer with lactate, pH 7.4 (FIG. 3); pH 7.4
Description: as §2

human PD-L1 on cells [27] = biological target: T2, human PD-L1 on cells; experiment: flow cytometry on MDA-MB-231 cells, Krebs buffer with lactate, pH 6.0 (FIG. 3); pH 6.0
Description: as §2

human PD-L1-Fc protein [28] = biological target: T1, human PD-L1-Fc protein; experiment: SPR BIAcore, mAb over immobilised PD-L1-Fc, pH 6.5
Description: as §3

human PD-L1-Fc protein [29] = biological target: T1, human PD-L1-Fc protein; experiment: SPR BIAcore off rate, mAb over immobilised PD-L1-Fc (FIG. 2)
Description: as §3

human PD-L1-Fc protein [30] = biological target: T1, human PD-L1-Fc protein; experiment: ELISA, Fab on coated human PD-L1-Fc, pH 7.4; pH 7.4

T2 sequence (Q9NZQ7 19-290 limits assumed): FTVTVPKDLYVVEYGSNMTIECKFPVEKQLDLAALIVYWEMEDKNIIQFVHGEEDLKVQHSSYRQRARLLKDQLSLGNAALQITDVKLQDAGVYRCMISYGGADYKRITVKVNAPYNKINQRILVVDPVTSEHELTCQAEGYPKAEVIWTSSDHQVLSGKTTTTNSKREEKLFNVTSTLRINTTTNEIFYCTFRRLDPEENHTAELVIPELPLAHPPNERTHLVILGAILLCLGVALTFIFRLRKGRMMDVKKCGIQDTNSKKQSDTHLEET
T1 sequence (Q9NZQ7 19-239 limits assumed): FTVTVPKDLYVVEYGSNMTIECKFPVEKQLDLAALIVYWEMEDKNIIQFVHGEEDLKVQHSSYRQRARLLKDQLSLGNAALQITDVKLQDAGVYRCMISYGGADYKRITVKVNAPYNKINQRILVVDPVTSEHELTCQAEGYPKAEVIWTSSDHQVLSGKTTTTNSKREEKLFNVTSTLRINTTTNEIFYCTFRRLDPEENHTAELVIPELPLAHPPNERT
T3 sequence (Q9NZQ7 19-239 limits assumed): as above

Row | Ratio pH 6:7.4 (human PD-L1-Fc protein [1]) | EC50 (human PD-L1 on cells [2]) [nM] | concentration at saturation of binding (human PD-L1-Fc protein [3]) [nM] | fold less (IC50) than the control Fab 2.7A04OPT at pH 6 (biotinylated human PD-L1 [4]) [fold] | Ratio pH 6:7.4 (biotinylated human PD-L1 [5]) | EC50 (human PD-L1 on cells [6]) [nM] | fold less inhibitory activity at pH 6.5 than at pH 6 (biotinylated human PD-L1 [7]) [fold] | Ratio pH 6 vs 7.4 (human PD-L1-Fc protein [8]) | IC50 (biotinylated human PD-L1 [9]) [nM] | Ratio pH 6:7.4 (human PD-L1 on cells [10]) | koff (human PD-L1-Fc protein [11]) [s⁻¹] | EC50 (human PD-L1 on cells [12]) [nM] | IC50 (biotinylated human PD-L1 [13]) [nM] | koff (human PD-L1-Fc protein [14]) [s⁻¹] | IC50 (biotinylated human PD-L1 [17]) [nM] | EC50 (human PD-L1-Fc protein [18]) [nM] | Binder | further results
1 | 11 | 2.16 | 4 | ~3 | 6.66 | 6.62 | ~3 | 9 | 12.2 | > 46.3 | 0.015 | > 100 | 81.2 | 0.00131 | 29.4 | 0.54 | Fab 8A04 (Fab, V domains shown, Purified Fab prepared from IgG with the Pierce kit; also called 8A04 Fab) VH: QVQLVQSGGGVVQPGRSLRLSCAASGFTFSSYGMYWVRQAPGKGLEWVAVISYDGSNKYYADSVKGRFTISRDNSKNTLNLQMNSLRAEDTAVYYCAKGALTHWGVVIGDGMDVWGQGTTVTVSS VL: NFMLTQPHSVSESPGKTVTISCMRTGTGNKGHYTRWYQQRPGSSPTTVIYEDDQRPSGVPDRFSGSIDSSSNSASLTISGLKTEDEADYYCQSFDSTNPWVFGGGTKLTVL | EC50 (human PD-L1-Fc protein [15]): > 10 nM; pH binding preference (fold) (human PD-L1 on cells [16]): > 100 fold
2 | – | – | – | – | – | – | – | – | – | – | – | – | – | – | – | – | mAb 2A09 (antibody, V domains shown, Fully human; also called 2A09_WT; 2A09 WT) VH: QVQLVQSGGGVVQPGRSLRLSCAASGFTFSSYGMYWVRQAPGKGLEWVAVISYDGSNKYYADSVKGRFTISRDNSKNTLNLQMNSLRAEDTAVYYCAKGALTHWGVVIGDGMDVWGQGTTVTVSS VL: NFMLTQPHSVSESPGKTVTISCTRSSGSIASNYVQWYQQRPGSSPTTVIYEDDQRPSGVPDRFSGSIDSSSNSASLTISGLKTEDEADYYCQSFDSTNPWVFGGGTKLTVL | EC50 (human PD-L1 on cells [19]): 6.1 nM; fold higher affinity at pH 6 than at pH 7.4 (human PD-L1-Fc protein [20]): ~20 fold; IC50 (biotinylated human PD-L1 [21]): 0.4 nM; Kd (human PD-L1-Fc protein [22]): 0.13 nM; koff (human PD-L1-Fc protein [22]): 0.000865 s⁻¹; kon (human PD-L1-Fc protein [22]): 6.77e+06 M⁻¹ s⁻¹; IC50 (biotinylated human PD-L1 [23]): 1.2 nM; Kd (human PD-L1-Fc protein [24]): 2.6 nM; koff (human PD-L1-Fc protein [24]): 0.0271 s⁻¹; kon (human PD-L1-Fc protein [24]): 1.05e+07 M⁻¹ s⁻¹; Kd (human PD-L1-Fc protein [25]): 0.57 nM; koff (human PD-L1-Fc protein [25]): 0.00711 s⁻¹; kon (human PD-L1-Fc protein [25]): 1.25e+07 M⁻¹ s⁻¹; EC50 (human PD-L1 on cells [26]): 16.3 nM; EC50 (human PD-L1 on cells [27]): 2.4 nM; Kd (human PD-L1-Fc protein [28]): 0.18 nM; koff (human PD-L1-Fc protein [28]): 0.00129 s⁻¹; kon (human PD-L1-Fc protein [28]): 7.36e+06 M⁻¹ s⁻¹; fold better off rate at pH 6.0 than at pH 7.4 (human PD-L1-Fc protein [29]): ~5 fold
3 | 39 | 1.45 | 4 | ~3 | > 7.63 | 2.92 | ~3 | 20 | 13.1 | 11 | 0.00345 | 16 | > 100 | 0.000699 | 40 | 0.11 | Fab 8D06 (Fab, V domains shown, Purified Fab prepared from IgG with the Pierce kit; also called 8D06 Fab) VH: QVQLVQSGGGVVQPGRSLRLSCAASGFTFSSYGMYWVRQAPGKGLEWVAVISYDGSNKYYADSVKGRFTISRDNSKNTLNLQMNSLRAEDTAVYYCAKGALTHWGVVIGDGMDVWGQGTTVTVSS VL: NFMLTQPHSVSESPGKTVTISCVLSPRTHAGHYYRWYQQRPGSSPTTVIYEDDQRPSGVPDRFSGSIDSSSNSASLTISGLKTEDEADYYCQSFDSTNPWVFGGGTKLTVL | EC50 (human PD-L1-Fc protein [30]): > 10 nM
